According to the supplement of paper PMC10126150:
± gives the standard deviation of the averaged measurements.

Test system: ATP
Experiment: switch fluorescence ratio, 500 uM ATP over buffer (Cy3 cluster intensity, sum of 5 cycles each) (fold (ratio)); higher = stronger signal-on switching upon ATP binding; sequences stand for … in TCGTCGGCAGCGTCAGATGTGTATAAGAGACAGTTTTTTTTTTTTTTTTTTTTTTTTT…TC
Settings: aptamer strand: ATP DNA aptamer (quencher-CACCTGGGGGAGTATTGCGGAGGAAGG + anchor), 100 nM annealed; ATP concentration: 500 uM
Procedure, shortened: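 Imaging in selection buffer was followed by imaging after 15 min with 500 uM ATP at 22 °C, for Cy3-labelled switching-strand clusters annealed to 100 nM quencher-labelled ATP aptamer on a modified Illumina MiSeq flow-cell. Five of these buffer/ATP cycles ran, separated by NaOH stripping and re-annealing. The fluorescence ratio per cluster is summed target-cycle over summed buffer-cycle Cy3 intensity, averaged per switch-domain sequence; clusters outside 100-1000 RFU were removed.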
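Note: ATP exposure 15 min at 22 °C before imaging.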

| Sequence | switch fluorescence ratio |
| --- | --- |
| GTCAATTAGG | 0.997 ± 0.024 |
| GATTATATGG | 1 ± 0.039 |
| AGTTACCA | 1.054 ± 0.0038 |
| TCGGTAGGG | 0.9717 ± 0.003 |
| AGAGTGAGGG | 0.977 ± 0.0012 |
| TTTCCGAGGG | 1.43 ± 0.63 |
| ACTGGGAAG | 1.05 ± 0.064 |
| AGGACGACGG | 0.964 ± 0.021 |
| ACTCAATTAT | 1.02 ± 0.042 |
| TAAGTCCTTT | 0.9828 ± 0.0041 |
| TTTAGATTTT | 0.998 ± 0.026 |
| TAGTTGGGAG | 0.973 ± 0.012 |
| AGAGGGGGAG | 0.979 ± 0.027 |
| TGACCGAGCG | 0.9603 ± 0.0065 |
| CGGGGTGGGG | 0.993 ± 0.056 |
| AAGGAACGGC | 0.963 ± 0.043 |
| TCCAGTGGAA | 0.989 ± 0.044 |
| AGGTCTGTGG | 0.982 ± 0.04 |
| TGATTGTTAG | 0.988 ± 0.023 |
| ATGGATGAGA | 0.989 ± 0.03 |
| AGGACCGGGG | 1.024 ± 0.0095 |
| AAAACGGCGT | 0.959 ± 0.01 |
| TTTAGGTAGG | 1 ± 0.02 |
| AAGGGTTCGG | 1.03 ± 0.026 |
| GGGAGAGTTT | 1.01 ± 0.026 |

| Sequence | switch fluorescence ratio |
| --- | --- |
| TTTTGTAAGC | 1.04 ± 0.083 |
| TTTGTGGTAT | 1.03 ± 0.047 |
| ATTCTAACGA | 1.032 ± 0.0036 |
| CGGGTTTACG | 1 ± 0.025 |
| AAACTTTTAA | 1.01 ± 0.019 |
| TTCGAGGAAT | 1.08 ± 0.099 |
| AGGCCTTGGC | 1.018 ± 0.0039 |
| GAAATCGGA | 0.993 ± 0.016 |
| AAAAGGAGGC | 1.01 ± 0.011 |
| ACTGGGGCCG | 1.01 ± 0.056 |
| TGTGGCTTCC | 2.25 ± 0.099 |
| TGGCGTTGTG | 0.9928 ± 0.0017 |
| ATGAAGTGGA | 0.9555 ± 0.0093 |
| GTAGTCCAGG | 1.27 ± 0.082 |
| TTTGCTGAAC | 1.065 ± 0.0086 |
| GGGCTCTGAC | 1.049 ± 0.0084 |
| CCGTCTGGCG | 0.9959 ± 0.0067 |
| TTTCTCGGAG | 1.08 ± 0.084 |
| TTAGCGGGTT | 0.988 ± 0.048 |
| GGTCTCTTTG | 0.9663 ± 0.0084 |
| ATGTAAGCCC | 0.992 ± 0.022 |
| TAGCTGCATG | 1.01 ± 0.017 |
| GTAGGAAATA | 1.02 ± 0.02 |
| GTAACGTAAG | 1.03 ± 0.034 |
| GGACTTTGGC | 0.983 ± 0.042 |

| Sequence | switch fluorescence ratio |
| --- | --- |
| GCAGGGTGGC | 1 ± 0.062 |
| CAGTGTAGTC | 1.02 ± 0.057 |
| ACAGGAAGAG | 1.05 ± 0.038 |
| GGTGGGAAGT | 0.987 ± 0.021 |
| CTGCACATGG | 1.7 ± 0.21 |
| TCAGTAGGGA | 2.94 ± 2.8 |
| GCGTTAACGG | 1.02 ± 0.011 |
| TTTTACGTGC | 1.02 ± 0.05 |
| TTTGAGCGTT | 1.01 ± 0.04 |
| ATTTGGTTGT | 0.958 ± 0.021 |
| ACGAGGTTAA | 1.01 ± 0.018 |
| GCTGGCTCTT | 1.01 ± 0.014 |
| TTGCGGGGT | 1.02 ± 0.011 |
| GAAGGAAAGT | 0.9689 ± 0.0057 |
| TGTTAAAAAG | 0.991 ± 0.013 |
| GCCTTTGTTT | 0.986 ± 0.02 |
| AAGGGGTACA | 1.01 ± 0.02 |
| TACCATGCGG | 1.023 ± 0.01 |
| TTTGCCTCGT | 1.04 ± 0.025 |
| GCTTTAGTAT | 0.9963 ± 0.0058 |
| ATAGAGAAGC | 1.03 ± 0.025 |
| TCGTCAGTG | 0.991 ± 0.012 |
| GGGCGCACGG | 0.992 ± 0.039 |
| CCCAGGCCCG | 1.058 ± 0.0088 |
| TATAAACTGT | 0.993 ± 0.015 |

| Sequence | switch fluorescence ratio |
| --- | --- |
| GGAAGGGGAA | 1.01 ± 0.028 |
| AACCTATTCT | 1.15 ± 0.17 |
| ATTGGAATTG | 1.02 ± 0.035 |
| CGGATGGGGA | 0.993 ± 0.028 |
| CAGTTTCGGG | 1.004 ± 0.01 |
| GGGGCGTATC | 1.01 ± 0.04 |
| CATGCTGGGG | 0.9941 ± 0.0022 |
| AGTTGGTGAG | 0.98 ± 0.034 |
| GGGAAACATG | 0.979 ± 0.028 |
| CCCTTTATTT | 1.29 ± 0.36 |
| AAGTGGGCTG | 0.981 ± 0.023 |
| TAAAGGGCT | 1.001 ± 0.0055 |
| TGTGCCTGCT | 1 ± 0.043 |
| AGAAGATGTG | 0.973 ± 0.059 |
| ATGAACTAGG | 0.991 ± 0.022 |
| AAAGTGCATC | 0.992 ± 0.0037 |
| GTCGATAGCG | 0.984 ± 0.015 |
| AAATTGGTAA | 1 ± 0.017 |
| TTTTACCATT | 1.09 ± 0.061 |
| TATTGGTAAA | 0.997 ± 0.036 |
| CACACCGGCA | 1.093 ± 0.0043 |
| GGTACCAAAA | 0.992 ± 0.024 |
| CCAGGGAGGG | 1.06 ± 0.051 |
| GAAGTAAGCT | 0.983 ± 0.026 |
| AGGCCTTGTG | 0.985 ± 0.025 |
